Measurements published in patent publication US12356911B2, “Group of UDP-glycosyltransferase for catalyzing carbohydrate chain elongation and application thereof” (GSYNBIOT (SHANGHAI) CO., LTD, priority 2017, dated 2025).

Columns and labels:
Format in all cases: biochemical
[1] = In vitro transglycosylation at C-20, Rd as glycosyl acceptor, UDP-xylose as donor; conditions: crude enzyme (E. coli lysate supernatant); TLC and HPLC, FIG. 2, FIG. 4
[2] = In vitro transglycosylation at C-20, CK as glycosyl acceptor, UDP-glucose as donor; conditions: crude enzyme (E. coli lysate supernatant); TLC/HPLC, FIG. 2, 3, 12, 16
Text: (§1) Cell lysate of recombinant E. coli with empty vector pET28a was used as a control.
As shown in FIG. 16: Protopanaxadiol Ginsenoside CK is used as a glycosyl acceptor, and UDP-glucose is used as a glycosyl donor.

[3] = In vitro transglycosylation at C-20, F1 as glycosyl acceptor, UDP-glucose as donor; conditions: crude enzyme (E. coli lysate supernatant); TLC and HPLC, FIG. 5, FIG. 6
[4] = In vitro transglycosylation at C-20, Rd as glycosyl acceptor, UDP-glucose as donor; conditions: crude enzyme (E. coli lysate supernatant); TLC/HPLC, FIG. 2, 3, 11
Text: as §1

[5] = In vitro transglycosylation at C-20, CK as glycosyl acceptor, UDP-arabinose as donor; conditions: crude enzyme (E. coli lysate supernatant); TLC, FIG. 17

B1: GT29-32: Ginseng UDP-glycosyltransferase, 442 amino acids, SEQ ID NO: 4 (protein)
chain: MDNQEGRISIALLPFLAHGHISPFFELAKQLAKRNCNVFLCSTPINLSSIKNKDSSASIKLVELHLPSSPDLPPHYHTTNGLPSHLMVPLRNAFETAAPTFSEILKTLNPDLLIYDFNPSWAPEIASSHNIPAVYFLTSAAATSSMGLHAFKNSGEKYPFPDFYDNSNITPEPPSADKMKLFHDFVACFKRSCDIILIKSFRELEGKYIDFLSTLSKKTLVPVGPLVQDPMGHDEDPKTGHLINWLDKRAESTVVFVCFGSEYFPSNEELEELAIGLEISMVSFILAVRFPEGEKKGILPEGFVQRVGDRGLVVEGWAPQARILGHSSTGGFVSHCGWSSIMESVKFGVPVIAMARHLDQPLNAKLAAEVGVGMEVMRDENGKYKREAIAEVIRKVVMEKNGEVMRRKARELSEKMKEIGEQLIDRAVEELVQICKKKKDEQ
modifications: misc_feature - GT29-32; Panax ginseng
product formation from Rd and UDP-xylose (one product with the mobility of Rb3) [1]: can catalyze Rd to produce three products
product formation from CK and UDP-glucose (Gypenoside LXXV) [2]: can catalyze the formation of a new product
product formation from F1 and UDP-glucose [3]: can catalyze the formation of a new product
product formation from Rd and UDP-glucose (Rb1) [4]: can catalyze the formation of Rb1
product formation from CK and UDP-arabinose (Ginsenoside F3) [5]: can catalyze the first glycosyl of C-20 of CK to extend an arabinosyl to generate Ginsenoside F3
